Source: US20210388087A1 (Chugai, published 2021)
Changes are numbered by the printed parent chain. In names and notes the source's numbering stands.

T1: Human CD3eg linker (human)
T1 construct: Single-chain construct; also called recombinant human CD3
T1 chain: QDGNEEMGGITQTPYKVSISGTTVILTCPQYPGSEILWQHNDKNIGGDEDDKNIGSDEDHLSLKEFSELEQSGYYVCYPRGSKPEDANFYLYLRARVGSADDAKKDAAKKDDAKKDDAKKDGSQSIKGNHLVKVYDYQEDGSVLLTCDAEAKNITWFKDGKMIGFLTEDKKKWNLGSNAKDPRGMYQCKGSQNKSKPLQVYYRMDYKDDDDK

B1: H183/L072 VL N53P (antibody, name in Kabat numbering, V domains shown)
VH: QVQLVESGGGLVQPGRSLRLSCAASGFTFSNAWMHWVRQAPGKGLEWVAQIKDKGNAYAAYYAPSVKGRFTISRDDSKNSIYLQMNSLKTEDTAVYYCHYVHYASASTVLPAFGVDAWGQGTTVTVSS
VL: DIVMTQSPLSLPVTPGEPASISCQASQELVHMNRNTYLHWYQQKPGQAPRLLIYKVSPRFPGVPDRFSGSGSGTDFTLKISRVEAEDVGVYYCAQGTSVPFTFGQGTKLEIK
B2: H183/L072 VL Q24D (antibody, name in Kabat numbering, V domains shown)
VH: B1 VH
VL: B1 VL with Q24D, P58N
B3: H183/L072 VL P56W (antibody, name in Kabat numbering, V domains shown)
VH: B1 VH
VL: B1 VL with P58N, P61W
B4: H183/L072 VL P56M (antibody, name in Kabat numbering, V domains shown)
VH: B1 VH
VL: B1 VL with P58N, P61M
B5: H183/L072 VL P56R (antibody, name in Kabat numbering, V domains shown)
VH: B1 VH
VL: B1 VL with P58N, P61R
B6: H183/L072 VL P95D (antibody, name in Kabat numbering, V domains shown)
VH: B1 VH
VL: B1 VL with P58N, P100D
B7: H183/L072 VL P95H (antibody, name in Kabat numbering, V domains shown)
VH: B1 VH
VL: B1 VL with P58N, P100H
B8: H183/L072 VL P95Q (antibody, name in Kabat numbering, V domains shown)
VH: B1 VH
VL: B1 VL with P58N, P100Q
B9: H183/L072 VL N53Q (antibody, name in Kabat numbering, V domains shown)
VH: B1 VH
VL: B1 VL with P58Q
B10: H183/L072 VL P56H (antibody, name in Kabat numbering, V domains shown)
VH: B1 VH
VL: B1 VL with P58N, P61H
B11: H183/L072 VL N53R (antibody, name in Kabat numbering, V domains shown)
VH: B1 VH
VL: B1 VL with P58R
B12: H183/L072 VL P56G (antibody, name in Kabat numbering, V domains shown)
VH: B1 VH
VL: B1 VL with P58N, P61G
B13: H183/L072 VL P56Q (antibody, name in Kabat numbering, V domains shown)
VH: B1 VH
VL: B1 VL with P58N, P61Q
B14: H183/L072 VL P95E (antibody, name in Kabat numbering, V domains shown)
VH: B1 VH
VL: B1 VL with P58N, P100E
B15: H183/L072 VL Q24A (antibody, name in Kabat numbering, V domains shown)
VH: B1 VH
VL: B1 VL with Q24A, P58N
B16: H183/L072 VL P95T (antibody, name in Kabat numbering, V domains shown)
VH: B1 VH
VL: B1 VL with P58N, P100T
B17: H183/L072 VL N53S (antibody, name in Kabat numbering, V domains shown)
VH: B1 VH
VL: B1 VL with P58S
B18: H183/L072 VL N53T (antibody, name in Kabat numbering, V domains shown)
VH: B1 VH
VL: B1 VL with P58T
B19: H183/L072 VL P56A (antibody, name in Kabat numbering, V domains shown)
VH: B1 VH
VL: B1 VL with P58N, P61A
B20: H183/L072 VL P95K (antibody, name in Kabat numbering, V domains shown)
VH: B1 VH
VL: B1 VL with P58N, P100K
B21: H183/L072 VL P56N (antibody, name in Kabat numbering, V domains shown)
VH: B1 VH
VL: B1 VL with P58N, P61N
B22: H183/L072 VL P56F (antibody, name in Kabat numbering, V domains shown)
VH: B1 VH
VL: B1 VL with P58N, P61F
B23: H183/L072 VL P95S (antibody, name in Kabat numbering, V domains shown)
VH: B1 VH
VL: B1 VL with P58N, P100S
B24: H183/L072 VL N53W (antibody, name in Kabat numbering, V domains shown)
VH: B1 VH
VL: B1 VL with P58W
B25: H183/L072 VL P56S (antibody, name in Kabat numbering, V domains shown)
VH: B1 VH
VL: B1 VL with P58N, P61S
B26: H183/L072 VL P56D (antibody, name in Kabat numbering, V domains shown)
VH: B1 VH
VL: B1 VL with P58N, P61D
B27: H183/L072 VL N53V (antibody, name in Kabat numbering, V domains shown)
VH: B1 VH
VL: B1 VL with P58V
B28: H183/L072 VL P56L (antibody, name in Kabat numbering, V domains shown)
VH: B1 VH
VL: B1 VL with P58N, P61L
B29: H183/L072 VL P56E (antibody, name in Kabat numbering, V domains shown)
VH: B1 VH
VL: B1 VL with P58N, P61E
B30: H183/L072 VL P56T (antibody, name in Kabat numbering, V domains shown)
VH: B1 VH
VL: B1 VL with P58N, P61T
B31: H183/L072 VL P56V (antibody, name in Kabat numbering, V domains shown)
VH: B1 VH
VL: B1 VL with P58N, P61V
B32: H183/L072 VL P56K (antibody, name in Kabat numbering, V domains shown)
VH: B1 VH
VL: B1 VL with P58N, P61K
B33: H183/L072 VL P56I (antibody, name in Kabat numbering, V domains shown)
VH: B1 VH
VL: B1 VL with P58N, P61I

Target: T1, Human CD3eg linker
Experiment: SPR; fold vs parent H183/L072

Row | Binder | fold change of affinity [fold]
1 | B1 | 0.6
2 | B2 | 1.2
3 | B3 | 3
4 | B4 | 3.9
5 | B5 | 5.5
6 | B6 | 0
7 | B7 | 0
8 | B8 | 0
9 | B9 | 0.8
10 | B10 | 2.9
11 | B11 | 1.8
12 | B12 | 3.7
13 | B13 | 3.7
14 | B14 | 0
15 | B15 | 1.1
16 | B16 | 0
17 | B17 | 0.9

Row | Binder | fold change of affinity [fold]
18 | B18 | 0.4
19 | B19 | 4.1
20 | B20 | 0
21 | B21 | 3.3
22 | B22 | 3.3
23 | B23 | 0
24 | B24 | 0.7
25 | B25 | 4.1
26 | B26 | 3
27 | B27 | 0.3
28 | B28 | 3.1
29 | B29 | 3.4
30 | B30 | 3.9
31 | B31 | 3.4
32 | B32 | 5.6
33 | B33 | 3.1
